The record followed here is patent US20250339531A1, “DUX4 POLYPEPTIDES AND NUCLEIC ACIDS FOR TREATING INFLAMMATORY AND AUTOIMMUNE CONDITIONS” (Fred Hutchinson Cancer Center, priority 2021, published 2025).

This test deals with interferon-stimulated genes IFIH1, ISG20, CXCL9, and CD74. Briefly: IFNG induction of interferon-stimulated genes, RT-qPCR in MB135 cells with doxycycline-inducible transgenes. The class given is cell-based, human. To be noted: MB135 cells, doxycycline-induced transgene, continuous protocol, IFNG 16 h. As to the method:
All myoblast experiments were conducted in immortalized MB135 or MB200 myoblast cell lines (isolated from a control or FSHD2 subject, respectively cultured in Ham's F-10 Nutrient Mix (Gibco) supplemented with 15% fetal bovine serum (Hyclone), 100 U/100 μg/ml penicillin/streptomycin (Gibco), 1 μM dexamethasone (Sigma), and 10 ng/ml recombinant human basic fibroblast growth factor (PeproTech). To differentiate the myoblasts to myotubes, media was changed to DMEM supplemented with 10 μg/ml insulin (Sigma) and 10 μg/ml transferrin (Sigma). Cell lines containing doxycycline-inducible transgenes were additionally cultured with 2 μg/mL puromycin (Sigma). Transgenes were induced with 1 μg/mL of doxycycline (Sigma) for 4 hours prior to other treatments for a total of 20 hrs. The Kitra-SRS cells (RRID:CVCL_YI69) were provided by Dr. H. Otani and Osaka University (Nakai et al., 2019) and were cultured in DMEM supplemented with 10% fetal bovine serum (Hyclone) and 100 U/100 μg/ml penicillin/streptomycin (Gibco). Biological replicates consisted of independent but parallel experiments, such as simultaneously stimulating three cell culture plates with IFNγ. Technical replicates consisted of repeat measurements of the same biological sample, such as loading the same biological sample in triplicate for analysis by RT-qPCR.
Myoblasts were transfected with either (final concentrations) 10 μM 2′,3′-cGAMP (Sigma Aldrich), 2 μg/mL poly(I:C) (Invitrogen), or 1 μg/mL 3′ppp-dsRNA RIG-I ligand (Dan Stetson Lab, UW) using Lipofectamine 2000 according to manufacturer's protocol, or were stimulated with 1000U IFNβ (PeproTech) or 200 ng/ml IFNγ (R+D Systems) by addition directly to cell culture medium. After 16 hours of immune stimulation, RNA was collected from cells using the NucleoSpin RNA Kit (Macherey-Nagel) according to manufacturer's instructions. RNA samples were quantified by nanodrop and 1 μg of RNA per sample was treated with DNase I Amplification Grade (Thermo Fisher), and then synthesized into cDNA using the Superscript IV First-Strand Synthesis System, including oligo dT primers (Invitrogen). qPCR was run in 384-well plates on an Applied Biosystems QuantStudio 6 Flex Real-Time PCR System (ABI) and analyzed in Microsoft Excel.
(Quantitative PCR measures a nucleic acid by following its amplification.)

B1: iNLS-CTD: 3×FLAG tag nls construct encoding terminal 86 amino acids of DUX4 (aa 339-424), SEQ ID NOS: 12 and 13 (protein)
chain: MDYKDHDGDYKDHDIDYKDDDDKPKKKRKVNASASARQGQMQGIPAPSQALQEPAPWSALPCGLLLDELLASPEFLQQAQPLLETEAPGELEASEEAASLEAPLSEEEYRALLEEL
modifications: 3xFLAG tag and NLS
As to B1, the “suppression of IFNG induction of ISGs (IFIH1, ISG20, CXCL9, CD74)” value (“suppression of IFNG induction of ISGs” for short) is “suppresses a portion of the IFNG-induced ISG genes, CXCL9 and CD74”. Also, the “suppression of IFNG induction of ISGs” value (listed as iDUX4aa339-424) is “maintained ISG suppression, though not as strongly on the IFIH1 and ISG20 genes”. In addition, for the setting “listed as iNLS CTD”, the “suppression of IFNG induction of ISGs” value is “suppresses two of the four IFNG-induced”.

B2: CIC-DUX4 fusion: Kitra-SRS CIC-DUX4 fusion protein containing the terminal 98 amino acids of DUX4, doxycycline inducible (protein)
chain: MDYKDHDGDYKDHDIDYKDDDDKPPKRMRREPKKKRKVNLEGTSGGILQKEFWRNRIQYNQSQKDILQSWFQHDPFPDKAAREQLAKEIGVPESNIQVWFKNYRVKQRKLDYKCFSEKDQTQGHDQSQHLTQEYLPKEARQKQTFITWTQKNRLVQAFERNPFPDIATRKKLAEQTGLQESRIQMWFQKQRSLYLKKSRMEPMNLLVDDPNERPDATVGWHPINLFLPTDSSHYFSCSHSSSGHETLPPVLPSTQAPWDPFRFHVSQGPNVMIMQPTQAVQEGEKSDQPLIIPNHLLTLPILTKDLDTPTPFWLQYQEEHQNHKEHSGSGVPQVKSHSQPEPEHREQQPLNLGQFDISNILQRWDEICQALLAEWEPLKGTH
In the case of B2, the “suppression of IFNG induction of ISGs” value is “suppressed IFNγ-induction of ISGs IFIH1, CXCL9, and CD74, although not ISG20”.
